Assay results taken from patent US20170267762A1 (APOLLOMICS, published 2017).
Changes are numbered by the printed parent chain.

T1: mouse PD-1 (mouse, UniProt Q02242 25-169, limits assumed)
T1 sequence (looked up): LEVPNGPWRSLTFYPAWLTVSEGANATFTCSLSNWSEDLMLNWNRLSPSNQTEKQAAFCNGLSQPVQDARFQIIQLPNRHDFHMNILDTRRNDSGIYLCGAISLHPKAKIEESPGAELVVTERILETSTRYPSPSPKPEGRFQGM

T2: human CTLA4 (human, UniProt P16410 36-161, limits assumed)
T2 sequence (looked up): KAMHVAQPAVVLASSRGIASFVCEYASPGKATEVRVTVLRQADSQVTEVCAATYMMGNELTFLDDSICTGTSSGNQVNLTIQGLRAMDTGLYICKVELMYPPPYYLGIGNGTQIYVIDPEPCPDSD

T3: human ICOS (human, UniProt Q9Y6W8 21-140, limits assumed)
T3 sequence (looked up): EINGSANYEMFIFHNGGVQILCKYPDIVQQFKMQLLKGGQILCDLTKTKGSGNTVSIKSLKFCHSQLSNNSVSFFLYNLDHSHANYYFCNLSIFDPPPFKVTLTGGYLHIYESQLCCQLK

B1: 7A4 murine anti-PD-1 antibody (antibody, V domains shown)
VH: QIHLVQSGPELKKPGETVKISCKASGYTFTNFGMNWVKQAPGKGLKWMGWISGYTREPTYAADFKGRFAISLETSASTAYLQINDLKNEDMATYFCARDVFDYWGQGTTLTVSS
VL: DIVLTQSPASLAVSLGQRATISCRASESVDNYGYSFMNWFQQKPGQPPKLLIYRASNLESGIPARFSGSGSRTNFTLTINPVEADDVATYFCQQSNADPTFGGGTNLEIKR
notes: Purified hybridoma antibody; also called 7A4-mIgG1
B2: 22A5 murine anti-PD-1 antibody (antibody, V domains shown)
VH: EVKLVESGGGLVKPGGSLKLSCSASGFSFSYYDMSWVRQTPEKGLEWVATISGGGRNTYFIDSVKGRFTISRDNVKNNLYLLMSSLRSEDTALYYCASPYEGAVDFWGQGTSVTVSS
VL: DIVMTQSHKVMSTSVGDRVSITCKASQDVDNAVAWYQQNPGQSPKLLIKWASTRHHGVPDRFTGSGSGTDFTLTISTVQSEDLADFFCQQYSTFPYTFGGGTKLEIKR
notes: Purified hybridoma antibody; also called 22A5-mIgG1
B3: 13F1 murine anti-PD-1 antibody (antibody, V domains shown)
VH: DVQLQESGPGLVKPSQSLSLTCTVTGYSITSDYAWNWIRQFPGNQLEWMAYISYSGYTSYNPSLKSRISITRDTSKNQFFLQLNSVTTEDTATYYCARSLDYDYGTMDYWGQGTSVTVSS
VL: QIVLSQSPAILSASPGEKVTMTCRANSSVSSMHWYQQKPGSSPEPWIYAISNLAFGVPTRFSGSGSGTSYSLTISRVEAEDAATYFCQQWSSRPPTFGGGTKLEIKR
notes: Purified hybridoma antibody; also called 13F1-mIgG1
B4: 15H5 murine anti-PD-1 antibody (antibody, V domains shown)
VH: EVKLVESGGGLVKPGGSLKLSCAASGFAFRSYDMSWVRQTPEKILEWVATISGGGSYTYYQDSVKGRFTISRDNARNTLYLQMSSLRSEDTALYYCASPYGPYFDYWGQGTTLTVSS
VL: DIQMNQSPSSLSASLGDTITITCHASQSINVWLSWYQQKPGNIPKLLIYRASNLHTGVPSRFSGSGSGTGFTLTISSLQPDDIATYYCQQGQSYPWTFGGGTKLEIKR
notes: Purified hybridoma antibody; also called 15H5-mIgG1
B5: 6E1 murine anti-PD-1 antibody (antibody, V domains shown)
VH: EVKLVESGGGLVKPGGSLKLSCAASGFTFSSYGMSWVRQTPEKRLEWVATISGGGRDTYYLDSVKGRFTISRDNAKNNLYLQMSSLRSEDTALYYCVRQYYDDWFAYWGQGTLVSNSA
VL: DIVLTQTPATLSVTPGDSVSLSCRASQSLSNNLHWYQQKSHESPRLLIKYASQSISGIPSRFSGSGSGTDFTLSINSVETEDFGMYFCQQSNSWPLTFGAGTKLEMKR
notes: Purified hybridoma antibody; also called 6E1-mIgG1
B6: 7D3 murine anti-PD-1 antibody (antibody, V domains shown)
VH: B5 VH with A23G, T58I, L61P, F68L, S115T, N116V
VL: B5 VL with T7S, L29I, N32D, A51V, N92D, M106L
notes: Purified hybridoma antibody; also called 7D3-mIgG1

These binders were tested against T1, mouse PD-1 (assay: assays not detailed).

| Binder | binding result |
| --- | --- |
| B1 | no binding |
| B2 | no binding |
| B3 | no binding |
| B4 | no binding |
| B5 | no binding |
| B6 | no binding |

These binders were tested against T4, human PD-1 extracellular domain fused with human Fc tag (hPD-1-hFc) (human) (assay: ELISA on coated PD1-hFc).
T4 construct: also called human PD-1-hFc
T4 sequence (chain, as listed by the source limits assumed): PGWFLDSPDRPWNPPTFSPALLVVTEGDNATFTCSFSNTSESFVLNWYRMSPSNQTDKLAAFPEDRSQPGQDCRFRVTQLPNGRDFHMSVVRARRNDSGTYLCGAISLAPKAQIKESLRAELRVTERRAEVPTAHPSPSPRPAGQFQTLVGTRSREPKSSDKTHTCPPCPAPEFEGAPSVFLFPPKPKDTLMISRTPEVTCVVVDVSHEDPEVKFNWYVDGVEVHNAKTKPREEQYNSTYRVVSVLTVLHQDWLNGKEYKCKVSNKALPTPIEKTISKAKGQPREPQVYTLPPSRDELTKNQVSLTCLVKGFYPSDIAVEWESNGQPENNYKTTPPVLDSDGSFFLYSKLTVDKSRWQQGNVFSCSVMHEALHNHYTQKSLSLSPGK
Description: (§1) ELISA binding analysis was conducted based on human PD-1-hFc Protein. 96-well plates (Costar, Cat No:9018) were coated with 100 μL of 2 μg/ml PD1-hFc (CrownBio) in coating buffer (PBS, Hyclone, Cat No:SH30256.01B) overnight at 4° C. The wells were aspirated and non-specific binding sites were blocked by adding 200 μL of blocking buffer with 1% (w/v) of bovine serum albumin (BSA, Roche, Cat No: 738328) and incubating for 1 hour at 37° C. After the plates are washed three times with wash buffer (PBS with 0.05%(v/v) Tween20 (Sigma, Cat No:P1379), 100 μL/well of a suitable dilutions of hybridoma supernatant in blocking buffer were added and incubated at room temperature for 1 hour. The plates were washed and incubated with 100 μL/well of Goat anti-Mouse IgG (H+L) (Thermo, Cat No: 31432) in blocking buffer for 60 min. After the plates were washed, 100 μL/well of substrate solution (TMB(eBioscience, Cat No:00-4201-56) was added and the plates were incubated for 2min at room temperature. 100 μL/well of stop solution (2N H2SO4) was added to stop the reaction. The colorimetric signals were developed and read at 450 nm using a Auto Plate SpectraMax Plus (Supplier: Molecular Devices; Model: MNR0643; Software: SoftMax Pro v5.4).
(§2) The purified hybridoma antibodies were characterized further based on ELISA and FACS analyses.

| Binder | EC50 [µg/mL] |
| --- | --- |
| B1 | 0.00932 |
| B2 | 0.0194 |
| B3 | 0.0173 |
| B4 | 0.0134 |
| B5 | 0.0157 |
| B6 | 0.0244 |

The binders below were run against T5, human PD-1 on cells (293T cells transfected with human PD-1) (human, UniProt Q15116 25-288) (assay: FACS on hPD-1-293T cells).
T5 construct: whole, on cells; Also used as the target for the functional rows, where PD-1 stands on human T cells
T5 sequence (Q15116 25-288): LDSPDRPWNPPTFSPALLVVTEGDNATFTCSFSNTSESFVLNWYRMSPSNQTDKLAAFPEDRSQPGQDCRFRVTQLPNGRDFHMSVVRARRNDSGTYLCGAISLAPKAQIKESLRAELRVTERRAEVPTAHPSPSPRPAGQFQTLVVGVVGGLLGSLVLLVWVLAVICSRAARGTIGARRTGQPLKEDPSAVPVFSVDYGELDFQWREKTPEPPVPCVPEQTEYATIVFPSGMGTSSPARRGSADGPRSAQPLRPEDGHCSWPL
Description: The cells were incubated with the indicated antibody (20 ug/ml with the dilution of ⅕) at 4° C. for 1 h. Cells were washed three times with FACS buffer. A secondary antibody (PE Goat anti-mouse: 1:200; PE mouse anti-human: 1:10) was added to the cells at 100 ul/well, and incubated at 4° C. for 40min. Cells were washed three times with FACS buffer and analyzed by FACS Array.
as §2

| Binder | EC50 [µg/mL] |
| --- | --- |
| B1 | 0.0389 |
| B2 | 0.0775 |
| B3 | 0.0308 |
| B4 | 0.0454 |
| B5 | 0.0491 |
| B6 | 0.0527 |

The binders below were run against T4, human PD-1 extracellular domain fused … (assay: ELISA binding (summary table)).
Description: as §1, §2

| Binder | EC50 [µg/mL] |
| --- | --- |
| B1 | 0.00932 |
| B2 | 0.0194 |
| B3 | 0.0173 |
| B4 | 0.0134 |
| B5 | 0.0157 |
| B6 | 0.0244 |

The binders below were run against T6, human PD-1 (construct not stated) (human, UniProt Q15116 25-167, limits assumed) (assay: Biacore, antibody captured, PD-1 analyte).
T6 construct: also called PD-1 analyte
T6 sequence (Q15116 25-167 limits assumed): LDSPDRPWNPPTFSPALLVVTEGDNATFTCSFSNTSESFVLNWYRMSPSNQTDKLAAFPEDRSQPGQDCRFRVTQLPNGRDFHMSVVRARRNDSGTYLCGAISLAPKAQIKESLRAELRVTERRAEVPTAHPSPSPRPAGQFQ
Description: (§3) To further characterize the binding characteristics of the antibodies, 10 hybridoma antibodies were profiled using Biacore (Biacore 3000, GE) to elucidate binding kinetics and calculate equilibrium binding constants. This assay was performed by capture method, using the mouse antibody capture kit (BR-1008-38, GE). After diluting anti-mouse Fc mab to 25 μg/ml in pH 5.0 immobilization buffer, immobilization was conducted with the parameters shown in Table 6 at a flow rate of 5 μl/min. The kinetic runs were done by 1) injecting ligand for typical 0.5-1 min at flow rate of 10 μl/min.; 2) injecting analytes of choice for typical 3 min followed by dissociation in running buffer (1× PBS-P20) for typical 5-10 min at flow rate of 30 μl/min.; and 3) injecting regeneration solution 10 mM Glycine pH1.7 for typical 1-2 min at flow rate of 10 μl/min.

| Binder | Ka [M⁻¹] | Kd [nM] | koff [s⁻¹] | kon [M⁻¹ s⁻¹] |
| --- | --- | --- | --- | --- |
| B1 | 4.06e+10 | 0.0246 | 4.82e-05 | 1.96e+06 |
| B2 | 5.17e+10 | 0.0193 | 2.88e-05 | 1.49e+06 |
| B3 | 3.6e+10 | 0.0278 | 3.92e-05 | 1.41e+06 |
| B4 | 5.44e+10 | 0.0184 | 3.67e-05 | 2e+06 |
| B5 | 3.92e+10 | 0.0255 | 2.83e-05 | 1.11e+06 |
| B6 | 4.02e+10 | 0.0249 | 2.83e-05 | 1.14e+06 |

The binders below were run against T6, human PD-1 (construct not stated) (assay: Biacore (summary table; unit from Table 7)).
Description: as §3

| Binder | Kd [nM] |
| --- | --- |
| B2 | 0.0193 |
| B3 | 0.0278 |
| B4 | 0.0184 |
| B5 | 0.0255 |
| B6 | 0.0249 |

What follows are binders tested against T2, human CTLA4 (assay: Interaction with CTLA4, ICOS CD28; assay not detailed).

| Binder | binding result |
| --- | --- |
| B1 | no binding |
| B2 | no binding |
| B3 | no binding |
| B4 | no binding |
| B5 | no binding |
| B6 | no binding |

What follows are binders tested against T3, human ICOS in the same assay as above.

| Binder | binding result |
| --- | --- |
| B1 | no binding |
| B2 | no binding |
| B3 | no binding |
| B4 | no binding |
| B5 | no binding |
| B6 | no binding |

Each binder was assayed against human CD28 (human, UniProt P10747 19-152, limits assumed) in the same assay as above.
Sequence of human CD28 (P10747 19-152 limits assumed): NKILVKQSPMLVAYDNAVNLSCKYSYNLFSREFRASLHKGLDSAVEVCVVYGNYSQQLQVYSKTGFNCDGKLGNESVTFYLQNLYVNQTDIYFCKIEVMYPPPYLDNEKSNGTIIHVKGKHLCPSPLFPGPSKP

| Binder | binding result |
| --- | --- |
| B1 | no binding |
| B2 | no binding |
| B3 | no binding |
| B4 | no binding |
| B5 | no binding |
| B6 | no binding |

The binders below were run against T5, human PD-1 on cells (293T cells …) (assay: FACS blockage on hPD-1-293T cells, competitor biotin PD-L1).
Description: (§4) Various concentrations of the testing hybridoma antibodies were added to the cell suspension and incubated at 4° C. for 60 minutes in 96 well plates. […] Plates were washed 3 times, and mouse anti-biotin PE antibody (Biolgend, cat# 409004) was added. Flow cytometric analyses were performed using a FACS Array.
as §2

| Binder | IC50 [µg/mL] |
| --- | --- |
| B1 | 0.0289 |
| B2 | 0.0562 |
| B3 | 0.0199 |
| B4 | 0.0356 |
| B5 | 0.0268 |
| B6 | 0.038 |

These binders were tested against T5, human PD-1 on cells (293T cells …) (assay: FACS blockage on hPD-1-293T cells, competitor biotin PD-L2).
Description: as §4, §2

| Binder | IC50 [µg/mL] |
| --- | --- |
| B1 | 0.00445 |
| B2 | 0.21 |
| B3 | 0.0529 |
| B4 | 0.063 |
| B5 | 0.114 |
| B6 | 0.141 |

These binders were tested against T7, human PD-1 extracellular domain fused with mouse Fc (PD-1-mFc) (human, UniProt Q15116 25-170) (assay: blockage ELISA, coated PD-1-mFc, competitor PDL-1-mFc-biotin).
T7 construct: extracellular domain; not used because of the label; also called hPD-1-mFc; human PD-1-mouse Fc fusion protein
T7 sequence (Q15116 25-170): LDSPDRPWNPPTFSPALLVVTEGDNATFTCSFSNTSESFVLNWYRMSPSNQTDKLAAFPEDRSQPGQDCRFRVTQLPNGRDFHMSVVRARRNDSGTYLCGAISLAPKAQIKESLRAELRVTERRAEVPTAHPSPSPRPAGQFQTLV
Description: (§5) PD-1-mFc antigen (CrownBio) was suspended in PBS (Hyclone,Cat No:SH30256.01B) buffer (2 ug/ml, 100 ul/ well) and coated on the 96 well plate (costar, Cat No.:9018) 4° C. overnight. Plates were washed 3 times using washing buffer: PBS+0.05% Tween 20(Sigma, Cat No.:P1379). 200 ul of blocking buffer (PBS+1%BSA(Roche, Cat No.:738328)), was added to each well, incubated at 37° C. for 1 hour, and washed 3 times. Various concentrations (suitable dilutions of hybridoma supernatant in PBS) of the anti-PD-1 Abs were added to the wells (100 μl/well) and incubated at 37° C. for 1 hour. […] Secondary antibody (Avidin HRP eBioscience cat No.:E07418-1632, 1:500, 100 ul/well) was added, incubated at 37 ° C. for 0.5 hour, and washed 3 times. TMB (Sigma, Cat No.: T0440, 100 ul/well) was added, and incubated for 3 min at RT. To stop the reaction, 2N H2SO4 (100 ul/well), was added. The colorimetric signals were developed and read at 450 nm using a Auto Plate SpectraMax Plus (Supplier: Molecular Devices; Model: MNR0643; Software: SoftMax Pro v5.4).
as §2

| Binder | IC50 [µg/mL] |
| --- | --- |
| B1 | 0.699 |
| B2 | 1.11 |
| B3 | 0.701 |
| B4 | 0.873 |
| B5 | 0.961 |
| B6 | 0.982 |

Each binder was assayed against T7, human PD-1 extracellular domain fused … (assay: blockage ELISA, competitor PDL-1-mFc-biotin (summary table; IC50 in ng/ml in Table 2)).
Description: as §5

| Binder | IC50 [µg/mL] |
| --- | --- |
| B1 | 0.699 |
| B2 | 1.11 |
| B3 | 0.701 |
| B4 | 0.873 |
| B5 | 0.961 |
| B6 | 0.982 |
